Assay results published in PMC3978657, “Early Steps in Autophagy Depend on Direct Phosphorylation of Atg9 by the Atg1 Kinase” (Molecular Cell, 2014).

T1: soluble Atg1 (Atg1 complex purified from yeast, released from the beads by TEV protease cleavage) (S. cerevisiae, UniProt P53104 1-897)
T1 construct: Atg1 serine-threonine kinase, S. cerevisiae; only Atg1 was detected (anti-Atg1 blot) in the pull-down; also called soluble Atg1 kinase; soluble Atg1 complex
T1 sequence (looked up): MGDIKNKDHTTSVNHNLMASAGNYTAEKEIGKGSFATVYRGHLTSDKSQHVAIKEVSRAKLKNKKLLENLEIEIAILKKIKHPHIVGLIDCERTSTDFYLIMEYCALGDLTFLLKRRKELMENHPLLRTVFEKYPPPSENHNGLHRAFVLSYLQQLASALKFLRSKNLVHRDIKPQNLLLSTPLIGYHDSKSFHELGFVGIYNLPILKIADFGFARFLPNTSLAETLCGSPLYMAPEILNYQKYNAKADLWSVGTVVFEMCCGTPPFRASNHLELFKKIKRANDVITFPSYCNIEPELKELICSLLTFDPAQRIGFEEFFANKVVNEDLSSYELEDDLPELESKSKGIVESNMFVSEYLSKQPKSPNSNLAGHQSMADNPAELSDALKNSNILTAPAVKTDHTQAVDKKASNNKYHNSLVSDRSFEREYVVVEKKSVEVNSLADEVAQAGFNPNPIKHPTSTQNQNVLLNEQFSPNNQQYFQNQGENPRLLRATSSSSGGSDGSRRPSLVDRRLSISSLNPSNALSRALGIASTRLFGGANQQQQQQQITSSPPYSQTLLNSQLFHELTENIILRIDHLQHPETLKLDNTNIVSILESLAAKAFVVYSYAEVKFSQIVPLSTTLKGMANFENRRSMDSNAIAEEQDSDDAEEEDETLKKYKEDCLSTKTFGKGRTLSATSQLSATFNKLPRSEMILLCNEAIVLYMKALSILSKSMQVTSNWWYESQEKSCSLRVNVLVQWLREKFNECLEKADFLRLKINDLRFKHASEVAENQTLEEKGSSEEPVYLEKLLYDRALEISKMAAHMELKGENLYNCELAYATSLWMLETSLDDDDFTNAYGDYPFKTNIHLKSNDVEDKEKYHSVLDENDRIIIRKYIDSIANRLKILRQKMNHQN


Biological target: T1, soluble Atg1 (Atg1 complex purified …)
Assay: pull-down; GST fusion proteins from E. coli immobilized on beads, incubated with soluble Atg1; bound protein by anti-Atg1 western blotting
Details: both partners purified

| binding result | Binder |
| --- | --- |
| binds | GST-Atg9^757–997 wild-type (domain or fragment, S. cerevisiae, UniProt Q12142 757-997, looked up, Atg9, S. cerevisiae, C-terminal fragment, amino acids 757-997; also called C-terminal fragment of Atg9 (amino acids 757–997); recombinant Atg9 C-terminal fragment; source: E. coli, immobilized on beads) RENSEYVDGLGYVCKYAMFNMKNIDGEDTHSMDEDSLTKKIAVNGSHTLNSKRRSKFTAEDHSDKDLANNKMLQSYVYFMDDYSNSENLTGKYQLPAKKGYPNNEGDSFLNNKYSWRKQFQPGQKPELFRIGKHALGPGHNISPAIYSTRNPGKNWDNNNNGDDIKNGTNNATAKNDDNNGNNDHEYVLTESFLDSGAFPNHDVIDHNKMLNSNYNGNGILNKGGVLGLVKEYYKKSDVGR |
| binds | GST-Atg9^757–997 4A mutant (domain or fragment, S. cerevisiae, UniProt Q12142 757-997, looked up, Atg9, S. cerevisiae, C-terminal fragment, amino acids 757-997, 4A mutant; source: E. coli, immobilized on beads) RENSEYVDGLGYVCKYAMFNMKNIDGEDTHSMDEDSLTKKIAVNGAHTLNSKRRSKFTAEDHSDKDLANNKMLQAYVYFMDDYSNSENLTGKYQLPAKKGYPNNEGDSFLNNKYSWRKQFQPGQKPELFRIGKHALGPGHNISPAIYSTRNPGKNWDNNNNGDDIKNGTNNATAKNDDNNGNNDHEYVLTEAFLDSGAFPNHDVIDHNKMLNANYNGNGILNKGGVLGLVKEYYKKSDVGR |
